According to patent publication US5523209:

Assays:
[1] = molecular target: integrin α5 β1 on CHO cells (hamster); test: binding of soluble 125I-Fn to CHO cells
[2] = molecular target: integrin α5 β1 on CHO cells (hamster); test: 125I-Fn binding to CHO cells washed free of NaN3 and 2-deoxyglucose

Kd [1]: 100 nM
percent of the high affinity binding restored after washout of the metabolic inhibitors [2]: 75%
Substance: fibronectin (from UniProt P02751) (ligand)
